As usually defined, the EC50 (read off the curve) is the concentration at which the effect is half-maximal.

The values below come from patent publication US20230061604A1 (HIFIBIO HK, published 2023).

Assay [1] concerns the target T1, human OX40 protein expressed on the surface of cells (human, UniProt P43489 29-277).
T1 sequence (looked up): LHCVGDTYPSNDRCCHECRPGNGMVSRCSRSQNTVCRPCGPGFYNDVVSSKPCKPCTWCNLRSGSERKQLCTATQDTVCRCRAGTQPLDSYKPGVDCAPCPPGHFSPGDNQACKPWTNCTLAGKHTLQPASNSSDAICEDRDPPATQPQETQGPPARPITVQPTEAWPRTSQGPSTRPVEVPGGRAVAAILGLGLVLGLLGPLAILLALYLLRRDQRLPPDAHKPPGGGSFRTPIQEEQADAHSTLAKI
In words: cell-based or functional assay.

Assay [2] deals with T2, biotinylated OX40 recombinant protein (UniProt P43489 29-216, limits assumed, biotinylated (site not stated)).
T2 construct: also called Biotin-OX40
T2 sequence (looked up): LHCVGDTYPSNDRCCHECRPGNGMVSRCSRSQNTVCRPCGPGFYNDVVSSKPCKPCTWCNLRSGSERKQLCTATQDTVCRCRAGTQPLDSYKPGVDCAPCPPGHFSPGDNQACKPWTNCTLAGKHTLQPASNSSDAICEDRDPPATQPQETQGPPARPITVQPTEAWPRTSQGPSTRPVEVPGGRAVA
In words: ELISA: OX40L coated, biotinylated OX40 titrated (x axis is its concentration in nM), OD 450nm. In general terms: In an ELISA, binding on a coated surface is turned into a signal by an enzyme label.

B1: OX40L (trimeric OX40L recombinant protein) (ligand, UniProt P23510 51-183, looked up)
chain: QVSHRYPRIQSIKVQFTEYKKEKGFILTSQKEDEIMKVQNNSVIINCDGFYLISLKGYFSQEVNISLHYQKDEEPLFQLKKVRSVNSLMVASLTYKDKVYLNVTTDNTSLDDFHVNGGELILIHQNPGEFCVL
notes: Bought recombinant protein; also called OX40 ligand
Turning to B1, the “EC50 (MFI of GFP), NF-kb GFP Jurkat reporter cells, without cross-linking” value in assay [1] came out at 45 nM. For the same molecule, in assay [2], the “EC50 (read off the curve)” value was ~0.5 nM.

B2: anti-OX40 antibody HFB10-1E1hG1 (antibody, human IgG1, kappa, V domains shown)
VH: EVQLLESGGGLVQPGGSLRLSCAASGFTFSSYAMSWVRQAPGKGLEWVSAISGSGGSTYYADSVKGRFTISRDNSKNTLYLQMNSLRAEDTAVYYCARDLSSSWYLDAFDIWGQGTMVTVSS
VL: DIQMTQSPSSVSASVGDRVTITCRASQGISSWLAWYQQKPGKAPKLLIYAASSLQSGVPSRFSGSGSGTDFTLTISSLQPEDFATYYCQQANSFPLTFGGGTKLEIKR
In the case of B2, in assay [1], the “EC50 (MFI of GFP), NF-kb GFP Jurkat reporter cells, cross-linked with anti-human IgG” value stood at 2.9 nM; the “EC50 of IL-2 secretion, primary CD4+ T cells pre-activated with anti-CD3 and anti-CD28, cross-linked” value turned out to be 0.2 nM.
